The values that follow come from patent publication US11491212.

CB 2679d (modified FIX R318Y/R338E/T343R, SEQ ID NO:394), mature single-chain zymogen form, sequence (chain, as listed by the source R318Y R338E T343R): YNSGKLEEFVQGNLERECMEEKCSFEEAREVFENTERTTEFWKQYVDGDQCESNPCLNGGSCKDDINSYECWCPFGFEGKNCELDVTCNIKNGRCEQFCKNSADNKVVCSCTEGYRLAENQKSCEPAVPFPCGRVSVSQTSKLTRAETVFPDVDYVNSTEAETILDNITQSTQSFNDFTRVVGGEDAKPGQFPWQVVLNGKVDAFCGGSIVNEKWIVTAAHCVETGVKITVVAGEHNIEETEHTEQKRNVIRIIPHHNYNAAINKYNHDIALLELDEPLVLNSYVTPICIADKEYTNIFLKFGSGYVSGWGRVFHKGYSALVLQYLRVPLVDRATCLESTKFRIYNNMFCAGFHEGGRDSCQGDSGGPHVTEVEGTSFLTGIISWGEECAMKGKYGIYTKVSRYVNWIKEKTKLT

The subject of one series is CB 2679d (modified FIX R318Y/R338E/T343R, SEQ ID NO:394), mature single-chain zymogen form.
Test: not given
Take “activated Factor XI (FXIa; Heamatologic Technologies, Inc.)”: the “activation rate and extent of activation by factor XIa/calcium” value was “The activation rate of the polypeptide of SEQ ID NO:394 (CB 2679d) by factor XIa/calcium and the extent of activation (approximately 100%) were equivalent to those of commercial lots of BeneFIX®”.

The subject of the next series is plasma purified human AT-III (antithrombin III). The series is described as follows: same assay; ratio of K0.5 to Catalyst Biosciences WT FIXa.
As for “BeneFIX Coagulation Factor IX (Recombinant), activated (FIXa)”, the K0.5-mut/K0.5-wt was determined as 0.9 fold.

Take FIXa A103N/N105S: the K0.5-mut/K0.5-wt was determined as 1.1 fold.

Regarding FIXa D85N, the K0.5-mut/K0.5-wt was determined as 1.1 fold.

Take FIXa D104N/K106S: the K0.5-mut/K0.5-wt amounted to 0.9 fold.

As to FIXa K106N/V108S, the K0.5-mut/K0.5-wt worked out at 1.6 fold.
